Numbering of substitutions follows the chain as printed.

For assay [1], the target named is human αvβ1 integrin on CHOK1 stable cells (human, UniProt P06756 31-1048; P05556 21-798). Kind of assay: cell-based or functional assay.
In assay [2] the target is T1, human αvβ6 integrin on CHOK1 stable cells (human, UniProt P06756 31-1048; P18564 22-788). Kind of assay: cell-based or functional assay.
Assay [3] has as its target T2, mouse αvβ1 integrin on CHOK1 stable cells (mouse, UniProt P43406 31-1044; P09055 21-798). Kind of assay: cell-based or functional assay.
Assay [4] concerns the target T3, mouse αvβ6 integrin on CHOK1 stable cells (mouse, UniProt P43406 31-1044; Q9Z0T9 22-787). Kind of assay: cell-based or functional assay.
Assay [5] has as its target human αvβ8 integrin on CHOK1 stable cells (human, UniProt P06756 31-1048; P26012 43-769). The experiment in a line: cell-based or functional assay.
Assay [6] concerns the target mouse αvβ5 integrin on CHOK1 stable cells (mouse, UniProt P43406 31-1044; O70309 24-798). Kind of assay: cell-based or functional assay.
Assay [7] has as its target mouse αvβ8 integrin on CHOK1 stable cells (mouse, UniProt P43406 31-1044; Q0VBD0 22-767). The experiment in a line: cell-based or functional assay.
Assay [8] addresses T4, recombinant mouse αvβ3 integrin extracellular domains (mouse, UniProt P43406 1-988; O54890 1-717, Biotinylated on the Avitag (tag not in the letters); interchain disulfide between the coiled-coils (not in the letters).).
T4 construct: Soluble heterodimer co-expressed in Expi293 cells; also called mαvβ3
The experiment in a line: AlphaLISA blocking of mouse vitronectin binding. Here is the method: (§1) Briefly, the testing antibody (8 μL) was added as a 4×(of Final testing concentration) solution in the HEPES buffer described previously into a 384w AlphaPlate™ (Perkin Elmer #6005350). Then the integrin and ligand were added sequentially as 8×(4 μL each). Plates were sealed and incubated at room temperature for two hours. Then 4×acceptor bead solution ([…]) was added, and the plates were resealed and incubated at room temperature (RT) for one hour. Finally, 4×([…]) donor beads solution was added in a darkened room and incubated for 45 minutes at room temperature. Plates were read on the Envision (Perkin Elmer) in AlphaScreen™ mode within three hours of donor bead addition.
(Bead proximity is the source of the signal in Alpha formats.)

The target in assay [9] is T1, human αvβ6 integrin on CHOK1 stable …. The experiment in a line: cell-based ELISA (CELISA), CHOK1 cells expressing the integrin. On the procedure:
(§2) Integrin cell-based ELISA (CELISA) assay. Cell binding EC₅₀ data for antibodies were obtained for CHOK1 parental cells and CHOK1 cells expressing human or mouse αvβ1, αvβ6, and αvβ1 integrins by cell-based ELISA. Three days prior to the assay cells were seeded at 10,000 cells per well in 100 μL/well of media in Falcon 96-well Flat-Bottom Tissue Culture Plates (REF 353916), resulting in an even cell monolayer in each well on the day of the assay. On the day of the assay, media was removed from the cells and a fivefold titration of primary antibodies was added at concentrations ranging from 0 to 200 nM in TBSF+MnCl₂ buffer (25 mM Tris, 0.15 M NaCl, 0.1% BSA, 0.5 mM MnCl₂, pH 7.5). Cells incubated with primary antibody solution for 1 hour at room temperature. […] After 30 minutes of incubation at room temperature, secondary antibody was removed, and cells were washed twice with 150 μL/well of 1×DPBS+Tween 20. Then 50 μL/well of TMB substrate (1-Step Ultra TMB-ELISA, Thermo Scientific, #34028) was added, incubated with cells at room temperature, and 50 μL/well of TMB stop solution (Seracare, #KPL 50-85-05) was then added after five minutes. Absorbance was read on a TECAN plate reader at 450 nm, with a 620 nm reference wavelength.

For assay [10], the target named is T5, human α5β1 integrin on CHOK1 stable cells (human, UniProt P08648 42-1049; P05556 21-798).
T5 construct: whole, on cells; Stably expressed on CHOK1 cells; also called hα5β1; CHOK1-human α5β1
The description is as above. Here is the method: as §2

In assay [11] the target is T2, mouse αvβ1 integrin on CHOK1 stable …. The assay is described as above. Here is the method: as §2
Assay [12] concerns the target T3, mouse αvβ6 integrin on CHOK1 stable …. The assay is described as above. On the procedure: as §2
The target in assay [13] is T6, mouse α5β1 integrin on CHOK1 stable cells (mouse, UniProt P11688 45-1053; P09055 21-798).
T6 construct: whole, on cells; Stably expressed on CHOK1 cells; also called mα5β1; CHOK1-mouse α5β1
The assay is described as above. Here is the method: as §2

Assay [14] concerns the target T7, recombinant mouse αvβ1 integrin extracellular domains (mouse, UniProt P43406 1-988; P09055 1-728, Biotinylated on the Avitag (tag not in the letters); interchain disulfide between the coiled-coils (not in the letters).).
T7 construct: Soluble heterodimer co-expressed in Expi293 cells; also called mαvβ1
Kind of assay: ForteBio Octet Red (BLI); upper end tied to Ab-31 and mαvβ1 by Table 13. In general terms: In BLI a coated tip is dipped into the sample, and binding shifts an interference pattern.

Assay [15] deals with T8, recombinant mouse αvβ5 integrin extracellular domains (mouse, UniProt P43406 1-988; O70309 1-719, Biotinylated on the Avitag (tag not in the letters); interchain disulfide between the coiled-coils (not in the letters).).
T8 construct: Soluble heterodimer co-expressed in Expi293 cells; also called mαvβ5
Kind of assay: AlphaLISA blocking of mouse vitronectin binding. On the procedure:
as §1

Assay [16] concerns the target T9, recombinant mouse αvβ6 integrin extracellular domains (mouse, UniProt P43406 1-988; Q9Z0T9 1-706, Biotinylated on the Avitag (tag not in the letters); interchain disulfide between the coiled-coils (not in the letters).).
T9 construct: Soluble heterodimer co-expressed in Expi293 cells; also called mαvβ6
The experiment in a line: ForteBio Octet Red (BLI); lower end tied to Ab-33 and mαvβ6 by Table 13.

T2 sequence (P43406 31-1044, chain 1 of 2): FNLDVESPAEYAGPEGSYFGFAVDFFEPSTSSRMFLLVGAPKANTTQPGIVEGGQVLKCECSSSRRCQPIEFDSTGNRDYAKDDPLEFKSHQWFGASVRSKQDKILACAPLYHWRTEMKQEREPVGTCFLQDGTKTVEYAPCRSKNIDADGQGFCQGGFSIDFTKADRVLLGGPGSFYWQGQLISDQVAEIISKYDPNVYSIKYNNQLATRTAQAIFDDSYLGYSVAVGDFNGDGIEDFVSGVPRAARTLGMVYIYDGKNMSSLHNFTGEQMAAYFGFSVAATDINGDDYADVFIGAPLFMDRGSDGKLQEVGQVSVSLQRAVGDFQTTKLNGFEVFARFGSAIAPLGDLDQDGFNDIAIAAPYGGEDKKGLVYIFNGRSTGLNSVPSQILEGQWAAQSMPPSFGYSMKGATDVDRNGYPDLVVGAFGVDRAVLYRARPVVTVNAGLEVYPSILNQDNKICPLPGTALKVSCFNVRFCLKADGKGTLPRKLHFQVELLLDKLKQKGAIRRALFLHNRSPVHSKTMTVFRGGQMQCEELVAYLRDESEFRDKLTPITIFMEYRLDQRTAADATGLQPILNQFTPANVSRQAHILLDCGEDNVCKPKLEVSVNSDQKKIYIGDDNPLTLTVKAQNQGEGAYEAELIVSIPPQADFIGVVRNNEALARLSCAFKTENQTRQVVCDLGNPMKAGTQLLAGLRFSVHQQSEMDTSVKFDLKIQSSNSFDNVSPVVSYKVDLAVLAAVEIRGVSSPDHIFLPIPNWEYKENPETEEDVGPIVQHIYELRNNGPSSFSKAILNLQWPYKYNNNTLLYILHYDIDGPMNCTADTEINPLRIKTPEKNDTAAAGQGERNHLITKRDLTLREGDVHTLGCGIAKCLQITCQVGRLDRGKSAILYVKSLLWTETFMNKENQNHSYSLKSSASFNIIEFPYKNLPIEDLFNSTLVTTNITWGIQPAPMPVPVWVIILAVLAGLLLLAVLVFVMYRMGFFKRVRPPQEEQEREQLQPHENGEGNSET
T2 sequence (P09055 21-798, chain 2 of 2): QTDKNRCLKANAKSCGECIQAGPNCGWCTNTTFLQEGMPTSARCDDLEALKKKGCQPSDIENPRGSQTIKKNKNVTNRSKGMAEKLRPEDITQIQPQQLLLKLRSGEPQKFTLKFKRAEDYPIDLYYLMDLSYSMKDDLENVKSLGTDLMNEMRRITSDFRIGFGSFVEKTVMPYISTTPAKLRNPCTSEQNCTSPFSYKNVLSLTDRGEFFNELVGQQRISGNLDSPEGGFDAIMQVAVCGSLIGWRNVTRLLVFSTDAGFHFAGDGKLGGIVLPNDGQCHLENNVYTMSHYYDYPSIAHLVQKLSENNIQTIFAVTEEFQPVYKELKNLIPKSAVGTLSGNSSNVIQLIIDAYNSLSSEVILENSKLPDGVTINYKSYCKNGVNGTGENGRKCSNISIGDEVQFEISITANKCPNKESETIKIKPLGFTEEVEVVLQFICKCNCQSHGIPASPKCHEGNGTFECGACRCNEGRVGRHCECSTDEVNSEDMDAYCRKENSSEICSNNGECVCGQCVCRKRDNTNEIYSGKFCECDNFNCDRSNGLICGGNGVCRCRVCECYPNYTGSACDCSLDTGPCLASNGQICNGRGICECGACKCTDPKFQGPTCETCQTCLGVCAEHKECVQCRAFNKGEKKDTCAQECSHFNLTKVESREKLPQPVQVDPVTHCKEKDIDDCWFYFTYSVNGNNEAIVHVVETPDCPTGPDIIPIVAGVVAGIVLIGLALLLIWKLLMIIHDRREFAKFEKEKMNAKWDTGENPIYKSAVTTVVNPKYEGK
T3 sequence (P43406 31-1044, chain 1 of 2): as the sequence (P43406 31-1044, chain 1 of 2) above
T3 sequence (Q9Z0T9 22-787, chain 2 of 2): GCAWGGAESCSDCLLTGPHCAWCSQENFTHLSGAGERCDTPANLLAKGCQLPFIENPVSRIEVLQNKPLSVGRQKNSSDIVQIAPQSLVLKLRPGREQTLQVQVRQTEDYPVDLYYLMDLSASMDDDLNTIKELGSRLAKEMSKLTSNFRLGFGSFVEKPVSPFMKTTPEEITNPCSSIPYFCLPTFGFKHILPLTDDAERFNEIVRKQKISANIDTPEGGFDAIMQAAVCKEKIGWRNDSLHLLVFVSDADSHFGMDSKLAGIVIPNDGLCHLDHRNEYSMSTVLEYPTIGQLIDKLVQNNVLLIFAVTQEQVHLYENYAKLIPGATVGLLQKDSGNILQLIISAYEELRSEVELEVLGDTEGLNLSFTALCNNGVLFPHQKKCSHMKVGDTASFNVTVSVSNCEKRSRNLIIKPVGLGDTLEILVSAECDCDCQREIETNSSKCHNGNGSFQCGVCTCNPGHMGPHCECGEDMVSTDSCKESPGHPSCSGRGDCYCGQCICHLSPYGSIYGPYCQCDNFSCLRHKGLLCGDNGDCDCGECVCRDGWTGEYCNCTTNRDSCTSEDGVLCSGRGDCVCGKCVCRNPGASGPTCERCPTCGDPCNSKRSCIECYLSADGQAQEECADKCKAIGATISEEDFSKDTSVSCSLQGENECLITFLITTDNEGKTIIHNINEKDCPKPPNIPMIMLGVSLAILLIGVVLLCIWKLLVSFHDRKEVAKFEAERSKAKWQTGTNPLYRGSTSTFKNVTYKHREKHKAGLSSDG
T4 sequence (P43406 31-988 limits assumed, form in doubt, chain 1 of 2): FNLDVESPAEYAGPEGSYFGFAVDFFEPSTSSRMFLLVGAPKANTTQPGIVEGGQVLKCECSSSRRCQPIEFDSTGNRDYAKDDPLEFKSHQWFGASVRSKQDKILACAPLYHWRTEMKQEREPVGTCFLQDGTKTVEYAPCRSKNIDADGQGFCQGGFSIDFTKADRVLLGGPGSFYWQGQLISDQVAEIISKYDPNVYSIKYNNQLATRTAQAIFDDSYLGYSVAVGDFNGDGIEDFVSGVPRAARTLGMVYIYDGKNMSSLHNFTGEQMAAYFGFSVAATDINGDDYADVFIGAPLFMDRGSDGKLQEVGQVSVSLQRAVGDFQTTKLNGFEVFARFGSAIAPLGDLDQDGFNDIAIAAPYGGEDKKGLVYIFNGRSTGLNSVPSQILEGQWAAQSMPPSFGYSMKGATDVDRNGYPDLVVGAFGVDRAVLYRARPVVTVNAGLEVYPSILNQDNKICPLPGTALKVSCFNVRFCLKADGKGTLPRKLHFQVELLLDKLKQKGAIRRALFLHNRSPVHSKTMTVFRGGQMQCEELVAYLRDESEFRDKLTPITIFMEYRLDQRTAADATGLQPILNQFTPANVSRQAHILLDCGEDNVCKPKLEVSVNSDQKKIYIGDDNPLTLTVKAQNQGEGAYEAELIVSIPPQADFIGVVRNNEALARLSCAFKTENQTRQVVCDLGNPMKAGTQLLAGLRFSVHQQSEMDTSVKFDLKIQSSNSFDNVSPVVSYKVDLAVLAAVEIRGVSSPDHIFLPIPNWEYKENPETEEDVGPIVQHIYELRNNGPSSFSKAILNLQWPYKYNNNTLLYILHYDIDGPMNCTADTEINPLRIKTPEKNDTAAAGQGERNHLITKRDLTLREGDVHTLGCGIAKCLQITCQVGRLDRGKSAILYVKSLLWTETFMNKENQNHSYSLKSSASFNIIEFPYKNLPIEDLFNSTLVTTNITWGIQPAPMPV
T4 sequence (O54890 26-717 limits assumed, form in doubt, chain 2 of 2): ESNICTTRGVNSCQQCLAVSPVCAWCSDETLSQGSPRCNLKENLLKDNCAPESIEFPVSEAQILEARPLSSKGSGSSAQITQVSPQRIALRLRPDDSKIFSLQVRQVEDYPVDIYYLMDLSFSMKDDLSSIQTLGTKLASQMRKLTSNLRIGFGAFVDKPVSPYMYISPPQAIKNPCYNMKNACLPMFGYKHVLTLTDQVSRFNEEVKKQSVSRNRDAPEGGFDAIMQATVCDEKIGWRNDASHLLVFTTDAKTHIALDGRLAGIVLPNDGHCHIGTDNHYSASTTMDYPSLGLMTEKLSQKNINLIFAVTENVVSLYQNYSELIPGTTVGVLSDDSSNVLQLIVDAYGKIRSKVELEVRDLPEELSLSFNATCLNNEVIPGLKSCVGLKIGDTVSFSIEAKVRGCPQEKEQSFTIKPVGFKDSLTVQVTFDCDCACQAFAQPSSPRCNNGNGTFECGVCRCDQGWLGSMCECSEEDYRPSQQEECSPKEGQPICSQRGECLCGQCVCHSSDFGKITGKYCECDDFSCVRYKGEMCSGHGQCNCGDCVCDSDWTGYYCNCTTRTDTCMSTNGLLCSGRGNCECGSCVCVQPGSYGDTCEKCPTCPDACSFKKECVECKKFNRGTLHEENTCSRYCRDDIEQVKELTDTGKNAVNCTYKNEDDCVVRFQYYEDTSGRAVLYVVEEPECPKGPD
T8 sequence (P43406 31-988 limits assumed, form in doubt, chain 1 of 2): as the sequence (P43406 31-988 limits assumed, form in doubt, chain 1 of 2) above
T8 sequence (O70309 24-719 limits assumed, form in doubt, chain 2 of 2): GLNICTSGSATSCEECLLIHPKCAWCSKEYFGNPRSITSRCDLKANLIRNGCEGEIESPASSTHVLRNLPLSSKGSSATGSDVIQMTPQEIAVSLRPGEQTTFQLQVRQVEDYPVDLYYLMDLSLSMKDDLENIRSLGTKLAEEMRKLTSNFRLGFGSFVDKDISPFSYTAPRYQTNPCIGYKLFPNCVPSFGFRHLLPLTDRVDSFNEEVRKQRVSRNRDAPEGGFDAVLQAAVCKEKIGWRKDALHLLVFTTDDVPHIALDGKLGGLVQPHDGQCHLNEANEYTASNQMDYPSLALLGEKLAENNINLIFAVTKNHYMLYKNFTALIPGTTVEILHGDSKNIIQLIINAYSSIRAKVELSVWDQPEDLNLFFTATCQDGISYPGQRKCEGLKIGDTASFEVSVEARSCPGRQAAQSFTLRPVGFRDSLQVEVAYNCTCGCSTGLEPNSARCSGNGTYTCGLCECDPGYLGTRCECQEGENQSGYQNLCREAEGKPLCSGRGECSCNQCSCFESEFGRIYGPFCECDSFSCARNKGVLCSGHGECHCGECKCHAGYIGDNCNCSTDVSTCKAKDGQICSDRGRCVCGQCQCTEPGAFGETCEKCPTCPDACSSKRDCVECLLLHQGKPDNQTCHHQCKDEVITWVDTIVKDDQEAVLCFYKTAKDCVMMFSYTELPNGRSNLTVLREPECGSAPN

B1: Ab-31 (antibody, V domains shown)
VH: EVQLQESGPGLVKPSETLSLTCAVSGYSISSGYYWGWIRQPPGKGLEWIGSIYHSGNTYYNPSLKSRVTISVDTSKNQFSLKLSSVTAADTAVYYCARVPRYSRGDAYYYYGMDVWGQGTTVTVSS
VL: DIQMTQSPSTLSASVGDRVTITCRASQSIGSWLAWYQQKPGKAPKLLIYKASSLESGVPSRFSGSGSGTEFTLTISSLQPDDFATYYCQQSGPYPWTFGGGTKVEIK
Usually IC50 stands for the concentration at which inhibition is half-maximal. Usually EC50 stands for the midpoint of the concentration-response curve. A higher EC50 goes with weaker potency. What is called Kd is the free concentration of one partner at which half of the binding sites on the other are occupied at equilibrium, for simple one-to-one binding. Regarding B1, the “IC50 of latent TGFβ activation (PAI-1 luciferase, TMLC and CHOK1-integrin co-culture)” value is 6.1 nM in assay [1]; 19.1 nM in [2]; 7.5 nM in [3]; 3.1 nM in assay [4]; 3.9 nM in [5]; 13.5 nM in assay [7]. In assay [3], the “IC50 of inhibition of adhesion of CHOK1-α5KO-mαvβ1 cells to fibronectin matrix” value worked out at 1.5 nM. In [6], the “IC50 of inhibition of adhesion of CHOK1-mαvβ5 cells to vitronectin matrix” value was 5.6 nM. Moreover, in assay [8], the IC50 worked out at 3.2 nM. Further, the EC50 came to 0.483 nM in assay [9]; 1.22 nM in assay [10]; 0.743 nM in assay [11]; 0.64 nM in assay [12]; 1.76 nM in assay [13]. Moreover, the Kd in assay [14] is 2 to 48 nM.

B2: Ab-33 (antibody, V domains shown)
VH: EVQLVQSGAEVKKPGSSVKVSCKASGGTFSNYAISWVRQAPGQGLEWMGGIIPIFGTANYAQKFQGRVTITADESTSTAYMELSSLRSEDTAVYYCARAPRSARGDMYYYYYGMDVWGQGTTVTVSS
VL: B1 VL with S91Y, P93R
Take B2: the results for the IC50 in assay [8] and in assay [15] were 9.2 nM and 96.3 nM, respectively. Moreover, the EC50 in assay [9] came out at 0.417 nM; in assay [11], 2.84 nM; in assay [12] it was 2.84 nM. In addition, the Kd in assay [16] lay in the range of 2 to 48 nM.

B3: Ab-30 (antibody, V domains shown)
VH: B1 VH
VL: DIQMTQSPSTLSASVGDRVTITCRASQSISSWLAWYQQKPGKAPKLLIYKASSLESGVPSRFSGSGSGTEFTLTISSLQPDDFATYYCQQVKIYPPYTFGGGTKVEIK
On to B3, for which the IC50 in assay [8] was determined as 4.2 nM. The EC50 is 0.323 nM in assay [9]; 0.495 nM in assay [10]; 0.593 nM in [11]; 0.335 nM in assay [12]; 0.03 nM in assay [13].

B4: Ab-32 (antibody, V domains shown)
VH: B1 VH
VL: EIVLTQSPGTLSLSPGERATLSCRASQSVRSSYLAWYQQKPGQAPRLLIYGASSRATGIPDRFSGSGSGTDFTLTISRLEPEDFAVYYCQQAGLVFTFGGGTKVEIK
Take B4: the IC50 in assay [8] was found to be 4.3 nM. The EC50 in [9] is 0.438 nM; in [10], 0.597 nM; in assay [11], 0.609 nM; in assay [12], 0.508 nM; in [13], 0.131 nM.

B5: Ab-29 (antibody, V domains shown)
VH: ELQLQESGPGLVKPSETLSLTCTVSGGSISSNSYYWGWIRQPPGKGLEWIGSIYYSGSTYYNPSLKSRVTISVDTSKNQFSLKLSSVTAADTAVYYCARVRRVAGRGDSYYYYYGMDVWGQGTTVTVSS
VL: DIQMTQSPSSVSASVGDRVTITCRASQGISRWLAWYQQKPGKAPKLLIYAASSLQSGVPSRFSGSGSGTDFTLTISSLQPEDFATYYCQQAISHPWTFGGGTKVEIK
Consider B5, for which the IC50 in assay [8] stood at 3.4 nM; in assay [15], 17.7 nM. Moreover, the EC50 in assay [9] came out at 0.861 nM; in assay [10] it was 0.166 nM; in [11], 1.09 nM; in [12] it was 0.285 nM; in [13], 0.213 nM.
